This assay has as its system Arabidopsis Δppd mutant. Nature of the assay: Complementation of the Arabidopsis Δppd mutant leaf phenotype. It is filed as in vivo. The settings on record: CaMV35s promoter, Arabidopsis thaliana ecotype Landsberg erecta, FIG. 13. The source says: The functionality of any PEAPOD sequence can be confirmed by complementation of the Arabidopsis Δppd mutant leaf phenotype. Complementation of the Arabidopsis Δppd mutant leaf phenotype was first used to identify the Arabidopsis PPD gene (White 2006). This was seen by a restoration of the wild type flattened leaf phenotype and normal rosette shape as opposed to the domed leaf and the twisting of the rosette to a “propeller” phenotype.
Arabidopsis thaliana (L.) Heynh ecotype Ler can be used as wild-type (WT). The Δppd loss of function deletion mutant (with PPD1 and PPD2 deleted) is as previously described in White 2006, PNAS 103, 13238-13243.
Plants are grown in a temperature-controlled glasshouse at a continuous 21° C. or in a controlled environment cabinet at 23° C. in 16-h light_8-h dark cycles.
Constructs above can be transformed into Arabidopsis by the floral dip infiltration method (Clough and Bent, 1998, Plant J 16, 735-43). The Δppd line is transformed to express the PPD polypeptides by standard techniques. Transgenic plants are confirmed by standard PCR analysis techniques with a combination of transgene-specific and T-DNA primers.
Complementation of the Δppd line to produce a wild-type leaf and rosette phenotype in T1 seedlings (the off-spring of the infiltrated plant) confirms PEAPOD functionality of the introduced gene, which can be shown in photographs.

B1: PPD1: PEAPOD 1 protein of Arabidopsis thaliana, SEQ ID NO: 1 (protein, listed as Arabidopsis thaliana)
chain: MDVGVSPAKSILAKPLKLLTEEDISQLTREDCRKFLKDKGMRRPSWNKSQAIQQVLSLKALYEPGDDSGAGIFRKILVSQPVNPPRVTTTLIEPSNELEACGRVSYPEDNGACHRMDSPRSAEFSGGSGHFVSEKDGHKTTISPRSPAETSELVGQMTIFYSGKVNVYDGIPPEKARSIMHFAANPIDLPENGIFASSRMISKLISKEKMMELPQKGLEKANSSRDSGMEGQANRKVSLQRYREKRKDRKFSKAKKCPGVASSSLEMFLNCQPRMKAAYSQNLGCTGSPLHSQSPESQTKSPNLSVDLNSEGI
On to B1, for which the “PEAPOD functionality by complementation of the Δppd deletion mutant” value is listed as “functionally equivalent”.

The record behind these values is patent US10487337B2, “Methods for monocot plant improvement” (Agresearch Limited, priority 2014, dated 2019).
